According to article PMC11728703:
Values joined by “and” are separate entries in the source; they are usually repeats but may differ in a detail not shown here. Equal entries are not always repeated.

Biological target: Bacteriophage P22 small terminase subunit gp3 (S-terminase), full length (bacteriophage P22)
Assay: native MS; co-purified S:L-terminase complex (peak 2) exchanged into 150 mM ammonium acetate pH 8.0, 2 uM, nanoflow electrospray capillary; modified QTOF-2 and Exactive Plus EMR Orbitrap

Sequence of Bacteriophage P22 small terminase subunit gp3 (S-terminase), full length (bacteriophage P22) (P04893 whole entry): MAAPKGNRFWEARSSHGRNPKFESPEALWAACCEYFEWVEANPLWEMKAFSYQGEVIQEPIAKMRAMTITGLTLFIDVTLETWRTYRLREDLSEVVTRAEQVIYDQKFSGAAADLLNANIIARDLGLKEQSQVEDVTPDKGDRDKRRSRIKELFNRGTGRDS

Q: Which results are given for “Bacteriophage P22 large terminase subunit gp2 (L-terminase), full length (enzyme)”?
A: stoichiometry N (gp2 per 1 (gp3)9): 1 and 2; stoichiometry N (gp2 per 2 (gp3)9): 5; stoichiometry N (gp2 per 3 (gp3)9): 7

Q: For “Bacteriophage P22 small terminase subunit gp3 (S-terminase), full length (natural protein)”, which stoichiometry N is on record?
A: 9
